Source: IntAct's records for PubMed 25265331

B1: Replication restart protein DnaT (Escherichia coli (strain K12)), P0A8J2 (parent)
chain: MSSRVLTPDVVGIDALVHDHQTVLAKAEGGVVAVFANNAPAFYAVTPARLAELLALEEKLARPGSDVALDDQLYQEPQAAPVAVPMGKFAMYPDWQPDADFIRLAALWGVALREPVTTEELASFIAYWQAEGKVFHHVQWQQKLARSLQIGRASNGGLPKRDVNTVSEPDSQIPPGFRG
partner: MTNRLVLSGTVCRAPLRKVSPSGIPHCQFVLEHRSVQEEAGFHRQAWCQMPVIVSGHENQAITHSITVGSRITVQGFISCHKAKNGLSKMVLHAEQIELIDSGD

Variants of: B1
Conditions: with prib_ecoli priB

Variant | effect of a mutation on the interaction
MSSRVLTPDVVGIDALVHDHQTVLAKAEGGVVAVFANNAPAFYAVTPARLAELLALEEKLARPGSDVALADQLYQEPQAAPVAVPMGKFAMYPDWQPDADFIRLAALWGVALREPVTTEELASFIAYWQAEGKVFHHVQWQQKLARSLQIGRASNGGLPKRDVNTVSEPDSQIPPGFRG [D70A] | disrupting interaction
